Measurements reported in PMC9394474.

Target: human hisTRIM7-PRYSPRY (human) (UniProt Q9C029)
Experiment: ITC

Row | Substance | Kd [µM]
1 | dipeptide LQ | 200
2 | ac-LLQ (peptide) | 39
